The domain aggregation screens of Martell et al. (2025)

Assay: soluble fraction after stress (log2 fold change); higher = more stays soluble; pooled small domains, quantitative proteomics
Conditions: stress: 75 degC
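Further: 20 min heating vs room temperature control held 20 min.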

Sequence	soluble fraction (log2)
HMKININEASRYELMTIGGLDAGRADMLMQYRQKREISSADELKGINGFASYDTAKLQKSFEISP	-0.0573
HMKIRKAVIPAAGLGTRVLPASKSIPKEMLPIVDKPVIQYIVEEAVKAGITEILIITGRGKGAIEDHFDRS	-0.391
HMKISIDNPSVLLDKLATLFPDTSKNKLRKMLTEGRIYVNDNIEHRAKRELINGDTVKILDKTTSKE	-0.121
HMKITAPLPGTITEIKVKVGDTVKNGDTVVVLEAMKMQNNIEAESNGTVTAIFVNKGDTVMEGDALMTI	-0.075
HMKITTKNYFKAIAEVGVENLPAALKKSHDLIEERTSKGADWSVYEHDAEVRRVFDLTFEKLFEFIDQ	-1.88
HMKKAITMGDIITVKELSEKIGIQVAEIIKKLMGLGILATINKELDYDTANVIASEFHIELERK	0.117
HMKKASLSTVEKKLMKQNYSNDTMENRLARVESYMFGTVFSSDDTQTRIDRISSAYNAQKSS	-0.0731
HMKKDLATYAYEHIKQMVIDRELMPGERIQQEVLARELGISRTPLVTALNRLASENLVELEANKGFSVRRF	-0.451
HMKKEETEAEELEEKFTSAQIKQAYGILNDPRYKQGNYSGAVNVINKIAPGLADHPDVKNALKRANEEL	0.809
HMKKGRIGSIIQYVREHPGVSSSEIITGLGLDISPATIRRDLTLLVAENKLSVEGQNKGTKYFVSPTYDMF	-1.22
HMKKIDVEVVRSQLIAWMADNGKSQAEVSKSMGISASALSMFIKGTYTGDNEQIGRKAAALMDLVHRQSA	-1.41
HMKKILITGNSGYIGSHLSKMLENDYEVHGLDIRQPQHPVAKFYEQDINRPINIEEEYDAVIHLAALV	-0.348
HMKKILLGDVNLDGKVDVNDVTLLQRYIAGETEVITSKDALTATNFNKDGNIDVLDVTDIQTFIANSE	-0.293
HMKKLTNKQIIFFAEKLAHHSDFASKYSKVGESYEEFAIRLEKELNTPQKVEFYSSYLEKVGFK	-2.54
HMKKPKTVLSEEQKEFIINQAQDGVSAYDIARILFPSVNVTNLSKEVIDVAEFIRDTDIKLLADSE	0.00266
HMKKPRKTSRKSIENAAIFYLQRFSSSIENLRRVLMRRVYRSAQYHNTKPEEDAKIVDSIIYRLIETGVL	-0.322
HMKKSRLHSVLEEIPGIGEKRRKILIKHFGTVEAIKKSSLEELARIKGMNRRAAQNVLEYLK	-0.775
HMKKVIKIEENVSLQKLAALMSLKVTDVLMRLLSMGMSGVNINSTIDADTAKILASEFGWTVED	-0.529
HMKKVKVPNVVGMSLKEARDALSAVNIAVNQVAGSVEDKSVVTEQSLKAGDEVDEGSSLNLTTEYK	0.878
HMKKYLTETEAAAYLNMPVEEIKAAITKGEIEQYVKTSSGYTISVEELDKFFGQKAYDTMTSNNS	0.0786
HMKLASIGDNIHTLRKNKGLTQSQLAGKLGVNVDTISNYEKGVSTPDFDIVEKLVNIFNVDAHSLLFK	-0.287
HMKLEKKWIEAVEKYRRYVLSTGIKHVQKPIEFENFRLGQWYADVRQSYRRGTLSKEKLLEIREINPDFPN	-2.17
HMKLFGTPGSPFARKVRIVLEEKRIPHEYIIERGSAPGSRVPQYNPLGKVPTLVLDDGRGLYDSPVIVEYL	-0.531
HMKLGYTVHGNVVTVKAVANGISLYNTIGQKVAESTDGQTVKAPAHGVYILSVQGKSGSRETAKIVI	-1.67
HMKLHQDLQIKVIDAANNKVEFIDTATGTSLATRTLDVNGVSKARGFEATLYGVVEDNDVFHIA	0.121
HMKLIRIPFILTEGPDSQKITIDVDGDEEFRLGDVFEEDDKLWTVNQILVSGERKAKRSMAGEVMRISALR	-1.2

Sequence	soluble fraction (log2)
HMKLNEQSMQVIDRIVDRHRGRPGPVKLMLHDVQKELGYIPFEAMEKIAAASGVSADEVYGVVTFYTQFTT	-0.919
HMKLNETIAEARKRKGLTQEQLAQKLYVTRQAVSRWERGEVVPGIDMLKLIAITLEEPIVHLL	-1.64
HMKLQIQNIEIDKKISELAEGVSAEKLPFLAKLIDRSKLLNDKGEINEDSVKAAIEEVVKAFPDFK	0.0511
HMKLRKINLIGIFGSKTAPSALVRLTNGRVLKVGLGELLDGGRVTAIGRSSLTYNKSGKSITLNMPI	-4.08
HMKLRYRTQEELLGVAREYRRRGLPLSVIVIDFYHWTKFGDWKFDPAYWPDPVGMVRELRDMGVEAAV	-0.17
HMKLSKKVTDFLAQMPSKSISPKMLANNLGLADDAGDYKHLLKTIAQLEESKAIEVTAAGNIALPQPE	-0.162
HMKLSLKTQVKEYLLSYIRDKKLQPGDRLLTQRELAEMLHTSQKVAQMALNSLEEEGIIIRRLGSGSFLAR	-1.31
HMKLTKPQEVFIQELLKGSSQYEAYLKAYPSKKTWKRNSIDTEASKLFKNAKIKQRYEELLYNIREE	-0.695
HMKLTNNDFIRLKTFMYNNYGINLENKKTLIETRLAIVVKRLGFNDFKSYIDNLMRDKTGEQASIIVGKLT	-2.83
HMKLTPKQQQIYDFISSFADEHGYPPSVREIAQAVNLKSPATVHFHLKGLREAGYISQAEGKTRAITI	-0.158
HMKMDGESQRLLSLIKEQGGSLPIGDKSSPEAIYRLTQMSKKTFKMALGSLYKAKQVVLSPTEVRL	-1.45
HMKMNFNEEEQKLLSEANVLVETNKTYTDDEVKGFSNKIVEHIMTFSKTDIPKVKSKFDPILFKI	-0.359
HMKMTIEDLITQAKESNAAENYYEAFQLYSKAIDVLPNDPDLYSARGVVLFHLDRKEDSLIDMNKSVD	-0.17
HMKMVEIDYGKFLTMLDTGKVKSVEIENNRIAINPSSSKDKNIYITGRMDDPELVDRLKNAKVEFTKVIP	-0.0753
HMKNAYDLKMLVKDNDGNIERNMKYYFFLANGSKVEGITDDNGYTKTITTIQPEKADLHLINDELI	-1.61
HMKNDIQLKHDVEEELQWDPAVDASRFAVQAKDGVVTLSGGVDTFADKHAAEEAIRRVAGVTALVIHVDV	-0.27
HMKNEFRVYPNPANKEIVTFNQTQDIEVYDTLGKLVLKAKNTNTLDTKSFHSGIYFIKTGSGLTRKLVV	-1.09
HMKNEQESIAQKLYEAALKNDFVTIQEIQSGGYRLRNDDLTHMRESGVQSNTLIAIQKIFGL	0.404
HMKNEQIFIVRPDAEGTRLDQWLAAQMASSEEAPSRMQIQRWIKAGLVEGQGTLNPARRIEAGESYTVKPG	0.0684
HMKNEYAMVIQVNGKLRGNMLVSADLEQKDIERMALDNEDIKRFISHENDVKKMIFVPKKLINIVT	-1.21
HMKNIFDWLKQINYHKQPADSFTEKDWELFNSYMVHRFMSMNREFIEVVNYVQEMPPQEKILIYNIYREF	-2.16
HMKNIINFIVKEDDNNKRVDMILANHDKSLSRTRVKNLILDSKLKINERIVQDPSIKTKLNDKIELEIVEP	0.631
HMKNIINLVIDGELHGKRIDAVIAQKNDSLSRTRIKNLVINGNLSINDEIVSDPSKKIYKDDKVSLTIPLP	-0.322
HMKNIMRQWIELEPDQGKIRSKLYSLDRVVEETTNEVGMIKLLLEIDEKELNNLVSHNDIRLV	-0.425
HMKNIRKQAIEAIDRIKNGNPIVISKNAKLIFKNIAKEANVSPTELHREFRDVMLYVNSLKAP	-0.346
HMKNKVTVPKVEGMDKEEAIQALNEVGLGYKAVMQSSDSVAEGKVISQGTAAGKKVDKNTQIIITVSGG	0.237

Sequence	soluble fraction (log2)
HMKNLADNIVALRKKHGLSQEQFAEKIDVTRQAVSNWERRIATPDVETIDLIAKLFDTDLTALVNG	-0.342
HMKNLKLVSNTDGIRIDSWLADEFEDYSRSYLRKLIDQDLVYVNGNKIKANYKLKKGDEISISIPEPE	-0.151
HMKNLTERQQQIIALISGNPLITRAEIASAIGFSVKTIERELSILSEIVSYVGSKKGGHWEIQT	-2.66
HMKNLTERQQRIIALISENPQTTRAEIAGAIGVATKTIERELTTLSNIVYYVGPKKGGHWEIIK	-1.51
HMKNLTEVEYSEFLESIAQDRVSKVQVDGLIIRGEMNDGQRFETVQPQVTDKALIDDMVNHRVDFSGARP	0.295
HMKNMSLGERIKEQRKSSGLSQEKVAEFVGVSRQAVTKWETGQSAPSTENLFKLAEIFGTTVDILLA	-0.198
HMKNNAIAPDQVVSLLKNEVNYNDDGRIEILDNNKNIRYNSKGELLTIEERVNEFLDANPHFRK	0.0664
HMKNSMANVQARREKILSAVDQSEPVAVEGLAQRFNVSITTLRRDLKALSDMGQVKWHHGLVERT	-0.229
HMKNVADEVFEKMLNMIIEGDWKKGEMIPSENELREAFSVSRSTVRQAVQRLSALGIVRSRQGKGTYVEQV	-1.7
HMKNYYELLGVAREASQDQIKKAYRKLARKYHPDVSKEADAETRMQELNVAYDTLSDAEKKREYDFQLDHP	0.0883
HMKPDDDMLLKILTKLFIQKQFVINSKDIFQYILKNTNRTYENIINIVNRLDTLSIEKKRQLTIPLIKEI	-0.585
HMKPEQIELTFSGTTAMRLDKFLAENQPGLSRAKLQAIISSGSVEVNGKVITKQAFKLDPGDLVKALIPE	-1.23
HMKPGWEDIFRMNQIQLEDAVRTVNRDDTLAPTKKAYLIQNLLASRWIVGNQLQAQKDKTTE	-0.126
HMKPGYVIQVNGTVTKIQSGLVYVKTPAAQYTLMRKYAPADAAVGDRVSLWINEEGMVIDVHGK	-2.03
HMKPKDILLPNFTNLTLDEAKAKAEEVKLNLNVSEEKYDVQIEEGKIISQDPKYQPNYTVKEGSTVNVVVS	≥ 1.04
HMKPLIIPLELMQRLSSDKQLEAGFNRFSKSKQHEFAAYIAAAKRVETKVKRLEKIIPLILSGEGLNDR	-2.35
HMKPLRPVHLEIQTHRLSPVGILRSSFRQAGKVMHSNHGRITGLNLEQLKLIQAAFAGEALPK	-0.158
HMKPQIRRHEKITALVREHGFMSVEQLARELEVTPQTIRRDIGILSAENVLRRYHGGAALGD	-0.941
HMKPSNLTSDERTQLLAQLKTAMGSDQYNQLRRQVGEEKLLEYVLDNVPGIQEEILGNRAVQENIDLH	0.0107
HMKPSTVSVPDVSGDKLSTAKMIIRKSGLKVGDVQKIEDDNVGAGKVVRTNPSAGSKKREGSSVDIFVASA	-0.0331
HMKPTVKGHFTRKESNVGGYADVRGWGVAGTPSMMANQSKDTRRFSTLIVPGRSVNVHPSPTKEAIIWWQS	-0.224
HMKPTVKKLLAALPELRSGQPLHLSVATRKLRDAGLLGKNASSPTLFRNYVAQFELIPENQPNAVRYR	-0.786
HMKPVSEMDNMEWVREQYFQNMIYEIGEWVKDKKTGIVGEIVKRGTNYVTIVQEDFSLHKIWLEDLETTE	-0.428
HMKQDYYSILGVMRDASQEEIKRAYLDAAQRLHPDRNTSAGDTEMFLDVQQAYEVLSNPKRRAQYDATLP	0.383
